Tests used:
[1] = target: LY6A (C57BL/6J allele), expressed from Ly6a cDNA in HEK293T cells (mouse (C57BL/6J)) (UniProt P05533); assay: bound vector genome assay (qPCR of viral genomes on cells); HEK293T cells transfected with Ly6 cDNA or left untransfected; 48 h later chilled to 4°C, recombinant AAV at 10^5 vg/cell for one hour, washed three times with cold PBS; vector genomes normalized to cell genomes
[2] = target: LY6A, endogenous on primary brain microvascular endothelial cells of C57BL/6 mice (mouse (endogenous in C57BL/6 BMVECs)) (UniProt P05533); assay: bound vector genome assay (qPCR of viral genomes on cells); primary BMVECs of C57BL/6 mice treated with SaCas9 vectors with sgRNAs against Ly6a or Ly6c1 or no sgRNA; 4°C, one hour, AAV at 10^6 vg/cell; normalized to cells treated with a vector lacking a sgRNA

For “AAV-PHP.B capsid (engineered AAV9 variant) (from UniProt Q6JC40 1-736; Q6JC40 1-736; Q6JC40 1-736) (complex)”, which fold increase in binding to cells on Ly6a expression [1] is on record?
The fold increase in binding to cells on Ly6a expression was greater than 50 fold.

What does the source list for “AAV-PHP.eB capsid (engineered AAV9 variant, further evolved from AAV-PHP.B) (from UniProt Q6JC40 1-736; Q6JC40 1-736; Q6JC40 1-736) (complex)”?
reduction in binding to BMVECs on Ly6a disruption (~50% reduction of LY6A) [2]: 50%; fold increase in binding to cells on Ly6a expression [1]: > 50 fold

Source: PMC6855452
